Experimental data as given in PMC5844992.

Assays:
[1] = biological target: HIV-1 NL4-3 wild-type protease (PR) tagged with CFP or YFP (HIV-1 (NL4-3)); experiment: FRET or BRET; FRET-based HIV-1 expression assay; COS-7 cells cotransfected with CFP- and YFP-tagged protease clones, 72 h, no DRV; acceptor photobleaching, CFP^A/B ratio > 1 means dimerization; confocal microscope, room temperature
[2] = biological target: HIV-1 NL4-3 wild-type protease (PR) tagged with CFP or YFP (HIV-1 (NL4-3)); experiment: FRET or BRET; as a1, cells cultured with 10 nM DRV added with the transfection

Substance: HIV-1 NL4-3 wild-type protease (PR) tagged with CFP or YFP (enzyme)
- CFP^A/B ratio [1]: 1.07
- CFP^A/B ratio [2]: 1.04
